According to US20070286806A1, “Methods and Compositions for Modulating a Steroid Receptor” (Mount Sinai Hospital, priority 2004, published 2007):
Residues, ends and D or L forms follow the SMILES beside them. *: point of attachment. Cbz = O=C(OCc1ccccc1)*

T1: His-PSF (6xHis-tagged full length human PSF, amino acid 1-707) (human, UniProt P23246 1-707)
T1 construct: Expressed in 293T or SHM cells (co-immunoprecipitation, reporter assays) or translated in rabbit reticulocyte lysate with ^35S methionine (GST pulldown); 1 only as 'e.g.' of wild type PSF; also called His tagged PSF; His tagged PSF1-707; not shown: N-terminal 6xHis tag of vector pcDNA3.1 6xHis
T1 sequence: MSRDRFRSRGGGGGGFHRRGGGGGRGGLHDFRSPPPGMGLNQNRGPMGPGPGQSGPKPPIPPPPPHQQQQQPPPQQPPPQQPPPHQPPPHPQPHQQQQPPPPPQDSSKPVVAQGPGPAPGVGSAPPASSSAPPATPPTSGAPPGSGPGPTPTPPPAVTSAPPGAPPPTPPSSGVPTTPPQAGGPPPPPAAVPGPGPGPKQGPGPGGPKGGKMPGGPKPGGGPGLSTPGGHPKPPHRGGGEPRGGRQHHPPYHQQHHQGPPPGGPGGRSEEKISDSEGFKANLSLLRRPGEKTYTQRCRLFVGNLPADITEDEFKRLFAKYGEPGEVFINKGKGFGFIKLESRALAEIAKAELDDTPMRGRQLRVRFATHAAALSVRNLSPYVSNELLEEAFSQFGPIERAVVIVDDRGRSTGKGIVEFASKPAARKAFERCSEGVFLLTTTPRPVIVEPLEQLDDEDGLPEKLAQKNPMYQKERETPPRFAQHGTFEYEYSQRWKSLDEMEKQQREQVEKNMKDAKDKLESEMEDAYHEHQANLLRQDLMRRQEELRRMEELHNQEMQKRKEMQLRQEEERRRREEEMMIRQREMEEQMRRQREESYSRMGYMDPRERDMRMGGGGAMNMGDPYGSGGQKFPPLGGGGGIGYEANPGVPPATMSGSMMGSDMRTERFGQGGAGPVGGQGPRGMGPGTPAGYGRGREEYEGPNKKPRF


Legend:
PRA and PRB protein = assay: PR protein level by western blot of whole cell lysate after co-transfection in SHM cells; type: cell-based
Protocol: FIG. 5. […] (A) SHM cells were transient transfected (eighteen hours) with PRA or PRB expression vector with or without increasing doses (0.2, 0.5, 1.0 and 2.0 μg) of His-PSF vector as indicated. Whole cell lysate was analyzed by western blot with PR or His tag antibody. NS=non-specific binding. (B) SHM cells were transient transfected (eighteen hours) with PRA or PRB expression vector together with 2.0 μg His tagged PSF1-707 or truncated PSF1-662. Culture media was added with or without 60 nM MG132 (Z-Leu-Leu-Leu-a1) as indicated for another 6 hours. Whole cell lysate was analyzed by western blot with PR or His tag antibody. Gβ protein was also detected as the cell lysate loading control.
For immunoprecipitation of the endogenous PR and PSF, T47D cells cultured in 150 mm dishes were lysed in 800 μl NETN buffer containing 150 mM NaCl plus protease inhibitor cocktail. Cell lysate were then incubated with 5 μg of PR or PSF, or control mouse IgG at 4° C. overnight, followed by the addition of 30 μl of protein A/G PLUS-agarose beads (Santa Cruz) for another two hours at 4° C. Resins were washed with NETN containing 250 mM NaCl and eluted with 1×Laemmli buffer. The eluted proteins along with the whole cell extract were western blotted by PR or PSF antibody. • GST pulldown assay: GST pulldown assay was performed as previously described (20). GST and its fusion proteins were first immobilized to glutathione-Sepharose 4B affinity matrix. The matrix was then incubated at 4° C. overnight with rabbit reticulocyte lysate (Promega) containing PR or His-PSF transcribed and translated in presence of ^35S methionine. The matrix was washed three times with cold NETN buffer before adding 1 ×Laemmli buffer to elute associated proteins. The eluted proteins were separated on 10% SDS-PAGE gel. Gels were treated with Enhancer (NEN, Boston, US) dried and analyzed by autoradiography. • Cell culture and transient transfection: SHM cells and 293T cells were maintained in DMEM plus 5% FCS (Sigma) as described before (22). For experiments involving steroid exposure, the medium was substituted with phenol red free DMEM containing 5% charcoal-treated fetal bovine serum (Hyclone, Utah, USA). Transfection was performed according to manufacturers protocol (Fementas). Cells were seeded at a density to achieve 60-80% confluency the following day. The DNA and transfection reagent were mixed and added to the medium. Cell lysates were collected at least 30 hours after transfection. For luciferase assay, cells were collected in 200 μl of lysis buffer (Promega) of which 10μl was used for the luciferase and β-Gal activity assays respectively. Luciferase activity was determined by using the luciferin reagent (Promega) according to manufacture's protocol. […]

PR protein = PR protein levels on over-expression of PSF in 293T cells; type: cell-based; conditions: 293T cells
[1] = target: T1, His-PSF (6xHis-tagged full length human …); assay: GST pulldown of ^35S-labeled PSF, autoradiography
Protocol: Bands were excised, reduced, allcylated and digested in-gel with trypsin as described (21). Tryptic peptides were extracted from the gel, desalted using ZipTip desalting columns (Millipore, Bedford, Mass.), equilibrated in 5% formic acid, washed with equilibration buffer and eluted in a solution of 5% formic acid and 60% methanol. Tandem mass spectrometry analysis was performed by using a nano-electrospray ionization (ESI) source (Protana A/S) coupled to a high-performance hybrid quadrapole time-of-flight API QSTARTM Pulsar mass spectrometer (MDS-Sciex, Concord, ON, Canada). After tryptic ion candidates were identified, product ion spectra were generated by collision-induced dissociation. For product ion scans, the collision energy was determined experimentally. Sequence and mass information of the peptides was used to screen the NRDB and dbEST databases. Databases were searched using the Mascot MS/MS search engine (Matrix Science, London, UK). […] Cells were plated at 150 mm diameter dish and grown to 60% confluent before transfection. Total of 15 μg plasmid was transfected by Exgen 500 (Fermantas). Eighteen hours after transfection, cells were washed two times ice-cold phosphate-buffered saline (PBS) then lysed in NETN buffer plus protease inhibitor cocktail. Protein concentration of the whole cell lysate (WCL) was determined by the Bradford assay and the WCL was diluted to 1 mg/ml in NETN. A 900 μl aliquot of WCL was incubated for overnight at 4° C. in suspension with either anti-His tag or anti-PR antibody, followed by the addition of 30 μl of protein A/G PLUS-agarose beads (Santa Cruz) for another two hours at 4° C. Resins were washed with NETN and eluted with 1×Laemmli buffer, boiled, and centrifuged. The supernatant was separated by SDS- 8% PAGE, electrophoresed to PVDF membrane, and visualized by ECL.

| Molecule | binding result [1] | further results |
| --- | --- | --- |
| CC(C)C[C@@H](C=O)NC(=O)[C@H](CC(C)C)NC(=O)[C@H](CC(C)C)NC(=O)OCc1ccccc1 [MG132, Z-Leu-Leu-Leu-a1, reference compound] (Cbz-Leu-Leu-Leu-aldehyde) | – | effect on PSF-induced loss of PR protein (PRA and PRB protein; final concentration of 60 μM for an additional 6 hours): block the loss of PR protein; effect on PSF-induced reduction of PR protein levels (PR protein): rescued |
| GST-PR fusion protein, amino acids 456-556 of PRB (other, also called other segments of PR; not shown: glutathione-S-transferase (GST) of vector pGEX 5X-2) STLECILYKAEGAPPQQGPFAPPPCKAPGASGCLLPRDGLPSTSASAAAAGAAPALYPALGLNGLPQLGYQAAVLKEGLPQVYPPYLNYLRPDSEASQSPQ | no binding | – |
| GST-PR fusion protein, amino acids 164-456 of PRB (other, also called other segments of PR; not shown: glutathione-S-transferase (GST) of vector pGEX 5X-2) LMSRSGCKVGDSSGTAAAHKVLPRGLSPARQLLLPASESPHWSGAPVKPSPQAAAVEVEEEDSSESEESAGPLLKGKPRALGGAAAGGGAAACPPGAAAGGVALVPKEDSRFSAPRVALVEQDAPMAPGRSPLATTVMDFIHVPILPLNHALLAARTRQLLEDESYDGGAGAASAFAPPRTSPCASSTPVAVGDFPDCAYPPDAEPKDDAYPLYSDFQPPALKIKEEEEGAEASARSPRSYLVAGANPAAFPDFPLGPPPPLPPRATPSRPGEAAVTAAPASASVSSASSSGS | no binding | – |
| GST-PR fusion protein, amino acids 650-933 of PRB (other, also called other segments of PR; not shown: glutathione-S-transferase (GST) of vector pGEX 5X-2) ALDAVALPQPLGVPNESQALSQRFTFSPGQDIQLIPPLINLLMSIEPDVIYAGHDNTKPDTSSSLLTSLNQLGERQLLSVVKWSKSLPGFRNLHIDDQITLIQYSWMSLMVFGLGWRSYKHVSGQMLYFAPDLILNEQRMKESSFYSLCLTMWQIPQEFVKLQVSQEEFLCMKVLLLLNTIPLEGLRSQTQFEEMRSSYIRELIKAIGLRQKGVVSSSQRFYQLTKLLDNLHDLVKQLHLYCLNTFIQSRALSVEFPEMMSEVIAAQLPKILAGMVKPLLFHKK | no binding | – |
| PSF-1-662: truncated form of PSF, amino acids 1-662 (protein, UniProt P23246 1-662, looked up, fragment) MSRDRFRSRGGGGGGFHRRGGGGGRGGLHDFRSPPPGMGLNQNRGPMGPGPGQSGPKPPIPPPPPHQQQQQPPPQQPPPQQPPPHQPPPHPQPHQQQQPPPPPQDSSKPVVAQGPGPAPGVGSAPPASSSAPPATPPTSGAPPGSGPGPTPTPPPAVTSAPPGAPPPTPPSSGVPTTPPQAGGPPPPPAAVPGPGPGPKQGPGPGGPKGGKMPGGPKPGGGPGLSTPGGHPKPPHRGGGEPRGGRQHHPPYHQQHHQGPPPGGPGGRSEEKISDSEGFKANLSLLRRPGEKTYTQRCRLFVGNLPADITEDEFKRLFAKYGEPGEVFINKGKGFGFIKLESRALAEIAKAELDDTPMRGRQLRVRFATHAAALSVRNLSPYVSNELLEEAFSQFGPIERAVVIVDDRGRSTGKGIVEFASKPAARKAFERCSEGVFLLTTTPRPVIVEPLEQLDDEDGLPEKLAQKNPMYQKERETPPRFAQHGTFEYEYSQRWKSLDEMEKQQREQVEKNMKDAKDKLESEMEDAYHEHQANLLRQDLMRRQEELRRMEELHNQEMQKRKEMQLRQEEERRRREEEMMIRQREMEEQMRRQREESYSRMGYMDPRERDMRMGGGGAMNMGDPYGSGGQKFPPLGGGGGIGYEANPGVPPATMSGSMMGSDM | – | PR proteins after co-transfection with PRB/PRA (PRA and PRB protein; after 24 hours): total loss of PR proteins |
